System: Bacillus subtilis
Assay: cleaved RNA product abundance (RNA/gDNA barcode ratio) relative to median wild-type variant (ratio to wild type); higher = more accumulation of the downstream cleavage product
Settings: experiment (reporter, strain, medium): exp 8a: truncated aprE reporter, strain BJT201 with 2% xylose (RNase J1 expressed); cleavage site: glnRA (positions -5 to +31 mutated)
Method in brief: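 In LB at 37°C, B. subtilis cultures went from OD600 0.0003 to 0.3. Their chromosomes held barcoded reporter mRNAs, truncated aprE or tetM, with RNase Y cleavage-site windows mutagenized via oligos at a 9% error rate. Cleaved RNA, chosen by gel, was reverse transcribed and barcode-sequenced alongside genomic DNA barcodes with UMI collapsing, giving a per-construct RNA:gDNA ratio scaled to the median construct with the unmutated site. This scaled ratio is termed cleaved product abundance.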

Sequence	cleaved RNA product abundance
CGACATGTCCCGCTTCTTTCATTAATCTGTTAGCAACTGTTTTGCTATAGACATTTACCTTTTAAGAGGAGGAAT	0.968
CGACATGTCCCGCTTCTTTCATTAATCTGTTAGCAACTGTTTTGCTATATAAATTTACCTTTTAAGAGGAGGAAT	0.994
CGACATGTCCCGCTTCTTTCATTAATCTGTTAGCAACTGTTTTGCTATATACAATTACCTTTTAAGAGGAGGAAT	0.89
CGACATGTCCCGCTTCTTTCATTAATCTGTTAGCAACTGTTTTGCTATATACAGTTACCTTTTAAGAGGAGGAAT	0.249
CGACATGTCCCGCTTCTTTCATTAATCTGTTAGCAACTGTTTTGCTATATACATATACCTTTTAAGAGGAGGAAT	0.829
CGACATGTCCCGCTTCTTTCATTAATCTGTTAGCAACTGTTTTGCTATATACATCTACCTTTTAAGAGGAGGAAT	0.993
CGACATGTCCCGCTTCTTTCATTAATCTGTTAGCAACTGTTTTGCTATATACATTCACCTTTTAAGAGGAGGAAT	0.488
CGACATGTCCCGCTTCTTTCATTAATCTGTTAGCAACTGTTTTGCTATATACATTGACCTTTTAAGAGGAGGAAT	0.991
CGACATGTCCCGCTTCTTTCATTAATCTGTTAGCAACTGTTTTGCTATATACATTTACATTTTAAGAGGAGGAAT	1.2
CGACATGTCCCGCTTCTTTCATTAATCTGTTAGCAACTGTTTTGCTATATACATTTACCATTTAAGAGGAGGAAT	2.04
CGACATGTCCCGCTTCTTTCATTAATCTGTTAGCAACTGTTTTGCTATATACATTTACCTTTTAAGAGGAGGAAT	1.16
CGACATGTCCCGCTTCTTTCATTAATCTGTTAGCAACTGTTTTGCTATATACATTTACTTTTTAAGAGGAGGAAT	1.68
CGACATGTCCCGCTTCTTTCATTAATCTGTTAGCAACTGTTTTGCTATATACATTTATCTTTTAAGAGGAGGAAT	0.969
CGACATGTCCCGCTTCTTTCATTAATCTGTTAGCAACTGTTTTGCTATATACTTTTACCTTTTAAGAGGAGGAAT	0.728
CGACATGTCCCGCTTCTTTCATTAATCTGTTAGCAACTGTTTTGCTATATAGATTTACCTTTTAAGAGGAGGAAT	0.587
CGACATGTCCCGCTTCTTTCATTAATCTGTTAGCAACTGTTTTGCTATATCCATTTACCTTTTAAGAGGAGGAAT	0.263
CGACATGTCCCGCTTCTTTCATTAATCTGTTAGCAACTGTTTTGCTTTATACATTTACCTTTTAAGAGGAGGAAT	0.247
CGACATGTCCCGCTTCTTTCATTAATCTGTTAGCAACTGTTTTGGTATATACATTTACCTTTTAAGAGGAGGAAT	0.264
CGACATGTCCCGCTTCTTTCATTAATCTGTTAGCAACTGTTTTTCTATATACATTTACCTTTTAAGAGGAGGAAT	0.483
CGACATGTCCCGCTTCTTTCATTAATCTGTTAGCAACTTTTTTGCTATATACATTTACCTTTTAAGAGGAGGAAT	0.706
CGACATGTCCCGCTTCTTTCATTAATCTGTTAGCAATTGTTTTGCTATATACATTTACCTTTTAAGAGGAGGAAT	1.59

Sequence	cleaved RNA product abundance
CGACATGTCCCGCTTCTTTCATTAATCTGTTAGCTACTGTTTTGCTATATACATTTACCTTTTAAGAGGAGGAAT	0.743
CGACATGTCCCGCTTCTTTCATTAATCTGTTAGGAACTGTTTTGCTATATACATTTACCTTTTAAGAGGAGGAAT	0.268
CGACATGTCCCGCTTCTTTCATTAATCTGTTATCAACTGTTTTGCTATATACATTTACCTTTTAAGAGGAGGAAT	0.403
CGACATGTCCCGCTTCTTTCATTAATCTGTTATCAATTGTTTTGCTATATACATTTACCTTTTAAGAGGAGGAAT	0.383
CGACATGTCCCGCTTCTTTCATTAATCTTTTAGCAACTGTTTTACTATATACATTTACCTTTTAAGAGGAGGAAT	0.94
CGACATGTCCCGCTTCTTTCATTAATCTTTTAGCAACTGTTTTGCTATATACATTTACCTTTTAAGAGGAGGAAT	1.14
CGACATGTCCCGCTTCTTTCATTAATGAGTTAGCAACTGTTTTGCTATATACATTTACCTTTTAAGAGGAGGAAT	1.18
CGACATGTCCCGCTTCTTTCATTAATGCGATAGCAACTGTTTTGCTATATACATTTACCTTTTAAGAGGAGGAAT	0.395
CGACATGTCCCGCTTCTTTCATTAATGCGTTAACAACTGTTTTGCTATATACATTTACCTTTTAAGAGGAGGAAT	0.228
CGACATGTCCCGCTTCTTTCATTAATGCGTTAGCAAATGTTTTGCTATATACATTTACCTTTTAAGAGGAGGAAT	0.927
CGACATGTCCCGCTTCTTTCATTAATGCGTTAGCAACTATTTTGCTATATACATTTACCTTTTAAGAGGAGGAAT	1.28
CGACATGTCCCGCTTCTTTCATTAATGCGTTAGCAACTGTGTTGCTATATACATTTACCTTTTAAGAGGAGGAAT	0.406
CGACATGTCCCGCTTCTTTCATTAATGCGTTAGCAACTGTTTTACTATATACATTTACCTTTTAAGAGGAGGAAT	0.324
CGACATGTCCCGCTTCTTTCATTAATGCGTTAGCAACTGTTTTGCTATATACATTCACCTTTTAAGAGGAGGAAT	0.329
CGACATGTCCCGCTTCTTTCATTAATGCGTTAGCAACTGTTTTGCTATATACATTTACATTTTAAGAGGAGGAAT	0.652
CGACATGTCCCGCTTCTTTCATTAATGCGTTAGCAACTGTTTTGCTATATACATTTACCTTTTAAGAGGAGGAAT	0.633
CGACATGTCCCGCTTCTTTCATTAATGCGTTAGCAACTGTTTTGCTATATAGATTTACCCTTTAAGAGGAGGAAT	0.761
CGACATGTCCCGCTTCTTTCATTAATGCGTTAGCAACTGTTTTGGTATATACATTTACCTTTTAAGAGGAGGAAT	0.244
CGACATGTCCCGCTTCTTTCATTAATGCGTTAGCAACTGTTTTTCTATATACATTTACCTTTTAAGAGGAGGAAT	0.479
CGACATGTCCCGCTTCTTTCATTAATGCGTTAGCAATTGTTTTGCTATATACATTTACCTTTTAAGAGGAGGAAT	0.995
CGACATGTCCCGCTTCTTTCATTAATGCTTTAGCAACTGTTTTGCTATATACATTTACCTTTTAAGAGGAGGAAT	0.618

Sequence	cleaved RNA product abundance
CGACATGTCCCGCTTCTTTCATTAATTCATTAGCAACTGTTTTGCTATATACATTTACCTTTTAAGAGGAGGAAT	0.776
CGACATGTCCCGCTTCTTTCATTAATTCGTCAGCAACTGTTTTGCTATATACATTTACCTTTTAAGAGGAGGAAT	0.639
CGACATGTCCCGCTTCTTTCATTAATTCGTTAACAACTGTTTTGCTATATACATTTACCTTTTAAGAGGAGGAAT	0.209
CGACATGTCCCGCTTCTTTCATTAATTCGTTACCAACTGTTTTGCTATATACATTTACCTTTTAAGAGGAGGAAT	0.231
CGACATGTCCCGCTTCTTTCATTAATTCGTTAGAAACTGTTTTGCTATATACATTTACCTTTTAAGAGGAGGAAT	0.285
CGACATGTCCCGCTTCTTTCATTAATTCGTTAGCAAATGTTTTGCAATATACATTTACCTTTTAAGAGGAGGAAT	0.563
CGACATGTCCCGCTTCTTTCATTAATTCGTTAGCAAATGTTTTGCTATATACATTTACCTTTTAAGAGGAGGAAT	0.87
CGACATGTCCCGCTTCTTTCATTAATTCGTTAGCAACAGTTTTGCTATATACATTTACCTTTTAAGAGGAGGAAT	0.913
CGACATGTCCCGCTTCTTTCATTAATTCGTTAGCAACTATTTTGCTATATACATTTACCTTTTAAGAGGAGGAAT	1.64
CGACATGTCCCGCTTCTTTCATTAATTCGTTAGCAACTGATTTGCTATATACATTTACCTTTTAAGAGGAGGAAT	0.876
CGACATGTCCCGCTTCTTTCATTAATTCGTTAGCAACTGCTTTGCTATATACATTTACCTTTTAAGAGGAGGAAT	0.6
CGACATGTCCCGCTTCTTTCATTAATTCGTTAGCAACTGTATTGCAATATACATTTACCTTTTAAGAGGAGGAAT	0.329
CGACATGTCCCGCTTCTTTCATTAATTCGTTAGCAACTGTCTTGCTATATACATTTACCTTTTAAGAGGAGGAAT	0.981
CGACATGTCCCGCTTCTTTCATTAATTCGTTAGCAACTGTTATGCTATATACATTTACCTTTTAAGAGGAGGAAT	1.05
CGACATGTCCCGCTTCTTTCATTAATTCGTTAGCAACTGTTTAGCTATATACATTTACCTTTTAAGAGGAGGAAT	0.488
CGACATGTCCCGCTTCTTTCATTAATTCGTTAGCAACTGTTTTACTATATACATTTACCTTTTAAGAGGAGGAAT	0.749
CGACATGTCCCGCTTCTTTCATTAATTCGTTAGCAACTGTTTTCCTATATACATTTACCTTTTAAGAGGAGGAAT	0.485
CGACATGTCCCGCTTCTTTCATTAATTCGTTAGCAACTGTTTTGATATATACATTTACCTTTTAAGAGGAGGAAT	0.498
CGACATGTCCCGCTTCTTTCATTAATTCGTTAGCAACTGTTTTGCCATATACATTTACCTTTTAAGAGGAGGAAT	0.237
